Square brackets hold non-standard residues; d marks the D form. Ends that are not written are not given here. * marks the point of attachment. Palmitoyl = CCCCCCCCCCCCCCCC(=O)*; Hyp = O=C(O)[C@@H]1C[C@@H](O)CN1
T1: human GIP-R (Homo sapiens, UniProt P48546)
T1 construct: expressed in transfected cells; host or cells: Chinese Hamster Lung (CHL) fibroblast cells, stably transfected
T1 sequence (P48546 22-466): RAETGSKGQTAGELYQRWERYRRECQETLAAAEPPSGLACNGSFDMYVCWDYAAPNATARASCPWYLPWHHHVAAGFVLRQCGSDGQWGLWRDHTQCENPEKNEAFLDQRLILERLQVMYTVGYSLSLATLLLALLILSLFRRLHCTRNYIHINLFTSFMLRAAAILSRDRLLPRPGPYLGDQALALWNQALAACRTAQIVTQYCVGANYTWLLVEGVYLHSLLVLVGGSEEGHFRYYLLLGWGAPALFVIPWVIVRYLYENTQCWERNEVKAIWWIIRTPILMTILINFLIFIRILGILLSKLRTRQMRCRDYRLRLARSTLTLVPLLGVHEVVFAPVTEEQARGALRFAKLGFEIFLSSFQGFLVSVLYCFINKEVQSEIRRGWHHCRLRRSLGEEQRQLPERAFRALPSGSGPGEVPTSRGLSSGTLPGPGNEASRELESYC

T2: human GIP receptor (GIP-R) (human, UniProt P48546 22-466)
T2 sequence (looked up): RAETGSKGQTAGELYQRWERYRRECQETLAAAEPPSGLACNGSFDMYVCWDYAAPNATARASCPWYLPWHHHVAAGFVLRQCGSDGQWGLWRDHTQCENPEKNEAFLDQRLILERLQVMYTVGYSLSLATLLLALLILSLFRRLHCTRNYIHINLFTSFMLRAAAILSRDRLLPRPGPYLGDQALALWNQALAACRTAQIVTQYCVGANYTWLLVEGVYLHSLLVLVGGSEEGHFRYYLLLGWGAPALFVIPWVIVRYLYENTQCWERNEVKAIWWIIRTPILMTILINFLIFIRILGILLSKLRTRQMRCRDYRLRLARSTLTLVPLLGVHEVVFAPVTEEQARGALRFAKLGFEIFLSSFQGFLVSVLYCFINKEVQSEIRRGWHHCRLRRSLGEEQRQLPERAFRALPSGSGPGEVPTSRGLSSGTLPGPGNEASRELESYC


Experiments:
DPP-IV = DPP-IV (Homo sapiens, UniProt P27487); test: Degradation of GIP and Glu3-substituted GIP analogs by DPP-IV (HPLC); assay type: in vitro ADME; settings: for Intact Peptide Remaining (%) 0 hrs. / remaining at 2 h, 2 μm / remaining at 4 h, 2 μm / remaining at 8 h, 2 μm: incubation with DPP-IV (5 mU), 37°C; for Intact Peptide Remaining (%) 0 hrs.: pH 7.8, 0 hrs; for half-life: incubation with DPP-IV, unit not given (time points in hrs), read-out: Estimated Half-Life; for remaining at 2 h, 2 μm / remaining at 4 h, 2 μm / remaining at 8 h, 2 μm: isolated DPP-IV enzyme (5 mU); for remaining at 2 h, 2 μm: pH 7.8, 2 hrs, read-out: Intact Peptide Remaining (%) 2 hrs.; for remaining at 4 h, 2 μm: pH 7.8, 4 hrs, read-out: Intact Peptide Remaining (%) 4 hrs.; for remaining at 8 h, 2 μm: pH 7.8, 8 hrs, read-out: Intact Peptide Remaining (%) 8 hrs.
human GIP-R = biological target: T1, human GIP-R; test: Cyclic AMP production in GIP-R transfected CHL cells; assay type: cell-based
Method: Tissue Culture. […] (v/v) fetal bovine serum, 1% (v/v) antibiotics (100 U/ml penicillin, 0.1 mg/ml streptomycin) (all from Gibco, Paisley, Strathclyde, Scotland). BRIN-BD11 cells were cultured in RPMI-1640 tissue culture medium containing 10% (v/v) fetal bovine serum, 1% (v/v) antibiotics (100 U/ml penicillin, 0.1 mg/ml streptomycin) and 11.1 mm glucose. The origin and secretory characteristics of these cells have been described in detail previously (McClenaghan, N. H. et al., 1996, Diabetes 45:1132-1140). The cells were maintained in sterile tissue culture flasks (Corning Glass Works, Sunderland, UK) at 37° C. in an atmosphere of 5% CO2 and 95% air using a LEEC incubator (Laboratory Technical Engineering, Nottingham, UK).
Methods. […] The culture medium was removed and cells subsequently washed twice with 2 ml ice-cold HBS buffer (130 mm NaCl, 20 mm HEPES, 0.9 mm NaHPO4, 0.8 mm MgSO4, 5.4 mm KCl, 1.8 mm CaCl2, 5.6 mm glucose and 25 μm phenol red) (pH 7.4). […] The medium was subsequently removed and the cells lysed with […] of lysing solution (5% TCA, 3% SDS, 92% H2O, also containing 0.1 mm unlabelled cAMP and 0.1 mm unlabelled ATP) (Sigma, Poole, Dorset, UK). The plates were then left on a shaker at room temperature for 30 minutes and tritiated cAMP formation determined by column chromatography using Dowex and alumina ion exchange columns (BioRad Life Science Research, Alpha Analytical, Larne, UK) as previously described (Gault, V. A. et al 2002, Biochem. J. 367:913-920).

[1] = biological target: T2, human GIP receptor (GIP-R); test: cell-based or functional assay

DPP-IV, sequence (P27487 whole entry, species assumed): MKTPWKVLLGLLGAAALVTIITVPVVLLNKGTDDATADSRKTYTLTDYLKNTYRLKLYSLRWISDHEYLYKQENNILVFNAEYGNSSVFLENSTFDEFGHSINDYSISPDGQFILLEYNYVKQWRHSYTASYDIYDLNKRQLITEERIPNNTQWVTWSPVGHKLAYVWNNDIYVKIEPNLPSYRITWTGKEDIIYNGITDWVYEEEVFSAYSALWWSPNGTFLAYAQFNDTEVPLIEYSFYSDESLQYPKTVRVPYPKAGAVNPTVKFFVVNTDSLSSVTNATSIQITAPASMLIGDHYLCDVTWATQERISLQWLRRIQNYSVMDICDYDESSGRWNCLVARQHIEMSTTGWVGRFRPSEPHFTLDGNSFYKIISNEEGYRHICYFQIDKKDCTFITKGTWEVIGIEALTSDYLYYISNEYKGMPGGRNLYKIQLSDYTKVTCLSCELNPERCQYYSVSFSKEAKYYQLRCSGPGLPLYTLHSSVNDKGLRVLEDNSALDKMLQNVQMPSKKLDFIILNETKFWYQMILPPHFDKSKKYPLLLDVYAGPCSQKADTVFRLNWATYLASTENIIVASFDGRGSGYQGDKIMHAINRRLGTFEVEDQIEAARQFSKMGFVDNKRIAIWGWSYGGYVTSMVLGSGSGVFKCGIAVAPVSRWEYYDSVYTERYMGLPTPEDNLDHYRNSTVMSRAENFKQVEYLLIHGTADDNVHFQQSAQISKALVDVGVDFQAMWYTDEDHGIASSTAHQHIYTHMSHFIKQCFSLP

| Molecule | Cyclic AMP EC50 (nm) [1] [nm] | cAMP response in presence of 10^-7 M GIP (% GIP max) [1] [% GIP max] | other results |
| --- | --- | --- | --- |
| YA[Hyp]GTFISDYSIAMDK(Palmitoyl)IHQQDFVNWLLAQKGKKNDWKHNITQ [(Hyp^3)LysPAL^16GIP] |  |  | Intact Peptide Remaining (%) 0 hrs. (DPP-IV): 100%; half-life (DPP-IV): > 8 h; remaining at 2 h, 2 μm (DPP-IV): 100%; remaining at 4 h, 2 μm (DPP-IV): 100%; remaining at 8 h, 2 μm (DPP-IV): 100% |
| YA[Hyp]GTFISDYSIAMDKIHQQDFVNWLLAQKGKKNDWKHNITQ [(Hyp^3)GIP] |  |  | EC50 (human GIP-R): 1340 nM; remaining activity at 0.1 µM (human GIP-R; CHL, read-out: cAMP response in presence of 10^-7 M GIP (% GIP max)): 56 ± 4%; Intact Peptide Remaining (%) 0 hrs. (DPP-IV): 100%; half-life (DPP-IV): > 8 h; remaining at 2 h, 2 μm (DPP-IV): 100%; remaining at 4 h, 2 μm (DPP-IV): 100%; remaining at 8 h, 2 μm (DPP-IV): 100%; resistance to DPP-IV degradation (DPP-IV; words, up to 8 hours incubation): completely resistant |
| YAAGTFISDYSIAMDKIHQQDFVNWLLAQKGKKNDWKHNITQ [(Ala^3)GIP] | 2.3 | 88 |  |
| YAKGTFISDYSIAMDKIHQQDFVNWLLAQKGKKNDWKHNITQ [(Lys^3)GIP] | 2.6 | 63.5 |  |
| YA[Hyp]GTFISDYSIAMDKIHQQDFVNWLLAQKGKKNDWKHNITQ [(Hyp^3)GIP] | 1340 | 56 |  |
| YA[Hyp]GTFISDYSIAMDK(Palmitoyl)IHQQDFVNWLLAQKGKKNDWKHNITQ [(Hyp^3)LysPAL^16GIP] | 138 | 48 |  |

The next lines start with results.

| Cyclic AMP EC50 (nm) [1] [nm] | cAMP response in presence of 10^-7 M GIP (% GIP max) [1] [% GIP max] | Molecule | other results |
| --- | --- | --- | --- |
| 0.5 | 100 | native GIP (glucose-dependent insulinotropic polypeptide; gastric inhibitory polypeptide), GIP(1-42) (from UniProt P09681 52-93) (ligand) |  |
| 870 | 63 | YAPGTFISDYSIAMDK(Palmitoyl)IHQQDFVNWLLAQKGKKNDWKHNITQ [(Pro^3)LysPAL^16GIP] |  |
| 1 | 62 | YAFGTFISDYSIAMDKIHQQDFVNWLLAQKGKKNDWKHNITQ [(Phe^3)GIP] |  |
| 3 | 78 | YAWGTFISDYSIAMDKIHQQDFVNWLLAQKGKKNDWKHNITQ [(Trp^3)GIP] |  |
| 1.5 | 76 | YAYGTFISDYSIAMDKIHQQDFVNWLLAQKGKKNDWKHNITQ [(Tyr^3)GIP] |  |
| 207 | 66 | YAPGTFISDYSIAMDKIHQQDFVNWLLAQKGKKNDWKHNITQ [(Pro^3)GIP] |  |

Source: patent US20090170762A1, “Treatment of Diabetes Related Obesity” (UUTech Limited, priority 2005, published 2009)
